{"source": "paper PMC3534942", "about": "(Virology, 2012)", "key": {"[1]": {"target": "HSV-1 gB730 (HSV-1 glycoprotein B ectodomain) (HSV-1) (UniProt P06437)", "assay": "SEC-MALS"}, "[2]": {"target": "the molecule itself", "assay": "mildly denaturing SDS-PAGE"}, "[3]": {"target": "the molecule itself", "assay": "SEC-MALS"}}}
{"molecule": "HSV-1 gB730 (HSV-1 glycoprotein B ectodomain) (from UniProt P06437 31-730) (domain or fragment)", "values": [{"measurement": "stoichiometry N", "setting": "[1]", "result": 3}]}
{"molecule": "HCMV gB706-CHis6 (HCMV strain AD169 glycoprotein B ectodomain, residues 25-706, C-terminal His6 tag) (domain or fragment) DPSSSTSHATSSTHNGSHTSRTTSAQTRSVYSQHVTSSEAVSHRANETIYNTTLKYGDVVGVNTTKYPYRVCSMAQGTDLIRFERNIICTSMKPINEDLDEGIMVVYKRNIVAHTFKVRVYQKVLTFRRSYAYIYTTYLLGSNTEYVAPPMWEIHHINKFAQCYSSYSRVIGGTVFVAYHRDSYENKTMQLIPDDYSNTHSTRYVTVKDQWHSRGSTWLYRETCNLNCMLTITTARSKYPYHFFATSTGDVVYISPFYNGTNRNASYFGENADKFFIFPNYTIVSDFGRPNAAPETHRLVAFLERADSVISWDIQDEKNVTCQLTFWEASERTIRSEAEDSYHFSSAKMTATFLSKKQEVNMSDSALDCVRDEAINKLQQIFNTSYNQTYEKYGNVSVFETSGGLVVFWQGIKQKSLVELERLANRSSLNITHRTRRSTSDNNTTHLSSMESVHNLVYAQLQFTYDTLRGYINRALAQIAEAWCVDQRRTLEVFKELSKINPSAILSAIYNKPIAARFMGDVLGLASCVTINQTSVKVLRDMNVKESPGRCYSRPVVIFNFANSSYVQYGQLGEDNEILLGNHRTEECQLPSLKIFIAGNSAYEYVDYLFKRMIDLSSISTVDSMIALDIDPLENTDFRVLELYSQKELRSSNVFDLEEIMREFNSYKQRVKYVEDKVVDPLPP", "values": [{"measurement": "binding result", "setting": "[2]", "result": "binds"}]}
{"molecule": "HCMV gB706-4M (HCMV strain AD169 glycoprotein B ectodomain, residues 25-706, Y155G/I156H/Y157R/W240A) (domain or fragment, N-linked glycosylation (mass difference of 22.9 kDa suggested that all 18 predicted N-linked glycosylation sites were glycosylated)) DPSSSTSHATSSTHNGSHTSRTTSAQTRSVYSQHVTSSEAVSHRANETIYNTTLKYGDVVGVNTTKYPYRVCSMAQGTDLIRFERNIICTSMKPINEDLDEGIMVVYKRNIVAHTFKVRVYQKVLTFRRSYAGHRTTYLLGSNTEYVAPPMWEIHHINKFAQCYSSYSRVIGGTVFVAYHRDSYENKTMQLIPDDYSNTHSTRYVTVKDQWHSRGSTALYRETCNLNCMLTITTARSKYPYHFFATSTGDVVYISPFYNGTNRNASYFGENADKFFIFPNYTIVSDFGRPNAAPETHRLVAFLERADSVISWDIQDEKNVTCQLTFWEASERTIRSEAEDSYHFSSAKMTATFLSKKQEVNMSDSALDCVRDEAINKLQQIFNTSYNQTYEKYGNVSVFETSGGLVVFWQGIKQKSLVELERLANRSSLNITHRTRRSTSDNNTTHLSSMESVHNLVYAQLQFTYDTLRGYINRALAQIAEAWCVDQRRTLEVFKELSKINPSAILSAIYNKPIAARFMGDVLGLASCVTINQTSVKVLRDMNVKESPGRCYSRPVVIFNFANSSYVQYGQLGEDNEILLGNHRTEECQLPSLKIFIAGNSAYEYVDYLFKRMIDLSSISTVDSMIALDIDPLENTDFRVLELYSQKELRSSNVFDLEEIMREFNSYKQRVKYVEDKVVDPLPP", "values": [{"measurement": "stoichiometry N", "setting": "[3]", "result": 3}]}
